Experimental data from paper PMC3371134 (Journal of Neurochemistry, 2012).

Target: calmodulin-Sepharose (calmodulin coupled to Sepharose beads) (UniProt P62157 1-149)
Assay: pull-down

APETEKAALAIQGKFRRFQKRKKDS [Pcp4l1 IQ motif synthetic peptide]
binding result: binds
